Measured values taken from US20210214440A1.

Target: CD3 (UniProt P07766)
Experiment: method and format not stated

B1: CD3B450 (antibody, V domains shown)
VH: QVQLQQSGPGLVKPSQTLSLTCAISGDSVFNNNAAWSWIRQSPSRGLEWLGRTYYRSKWLYDYAVSVKSRITINPDTSKNQFSLQLNSVTPEDTAVYYCARGYSSSFDYWGQGTLVTVSS
VL: QSALTQPASVSGSPGQSITISCTGTSSNIGTYKFVSWYQQHPGKAPKVMIYEVSKRPSGVSNRFSGSKSGNTASLTISGLQAEDEADYYCVSYAGSGTLLFGGGTKLTVL
Kd: 0.08 µM
